Residue numbers refer to the chain shown, from its start. Names may count otherwise. Values belong to the binder of their own block, whether it stands above or below them.
Key:
Experiment in all cases: SPR Biacore, 25 C, mAb capture
[1] = biological target: T1, hPRLR.mmh (soluble monomeric human PRLR) (human)
T1 construct: called soluble monomeric PRLR protein
T1 chain: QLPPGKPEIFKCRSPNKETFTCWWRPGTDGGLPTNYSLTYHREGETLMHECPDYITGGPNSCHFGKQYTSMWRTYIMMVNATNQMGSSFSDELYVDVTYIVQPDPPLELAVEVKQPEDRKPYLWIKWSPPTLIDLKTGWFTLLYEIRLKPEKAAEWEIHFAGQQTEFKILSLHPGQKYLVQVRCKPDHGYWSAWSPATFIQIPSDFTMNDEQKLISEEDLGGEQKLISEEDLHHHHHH
Protocol: (§1) Measurements were conducted on a T200 Biacore instrument. Kinetic association (kₐ) and dissociation (kd) rate constants were determined by processing and fitting the data to a 1:1 binding model using Scrubber 2.0 curve fitting software.

[2] = biological target: T2, hPRLR.mFc (soluble dimeric human PRLR) (human)
T2 construct: dimeric PRLR construct
T2 chain: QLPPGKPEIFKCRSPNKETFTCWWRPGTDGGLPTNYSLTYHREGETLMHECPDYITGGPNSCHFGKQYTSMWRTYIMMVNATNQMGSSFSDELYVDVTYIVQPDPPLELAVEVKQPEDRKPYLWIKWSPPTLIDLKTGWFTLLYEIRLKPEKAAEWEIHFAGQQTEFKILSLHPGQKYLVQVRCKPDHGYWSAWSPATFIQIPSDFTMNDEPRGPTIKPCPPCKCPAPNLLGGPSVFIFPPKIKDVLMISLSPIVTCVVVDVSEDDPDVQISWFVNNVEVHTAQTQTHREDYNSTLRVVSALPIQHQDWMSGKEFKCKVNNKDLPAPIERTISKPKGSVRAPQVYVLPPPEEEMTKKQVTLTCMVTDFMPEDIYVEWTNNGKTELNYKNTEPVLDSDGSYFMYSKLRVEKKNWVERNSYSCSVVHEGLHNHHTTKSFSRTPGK
Protocol: as §1

[3] = biological target: T3, macaca fascicularis (mf) PRLR.mmh (soluble monomeric monkey PRLR) (Macaca fascicularis)
T3 construct: called soluble monomeric PRLR protein
T3 chain: T1 chain with I76V, A110T, I125M, I158T, T207I
Protocol: as §1

B2: H1H6774P (antibody, human IgG1, V domains shown)
VH: EVQLVESGGGLAQPGGSLRLSCVASGFTFSTYWMSWVRQAPGKGLDWVGNIKQDGSEQNYVDSVRGRFTISRDNAKNSLFLQMNSLRAEDTGVYYCATLLTKGDYWGQGTLVTVSS
VL: DIQMTQSPSSLSASVGDSVTITCRASQDISNYLDWFQQKPGKAPKSLIYAASILQGGVPSRFSGSGYGTDFTLTISSLQPEDFATYYCRQYKTYPFTFGPGTKVDIK
notes: Human IgG1 Fc (H1H)
Kd [1]: 1.14 nM
T½ [1]: 14 min
koff [1]: 0.000818 s⁻¹
kon [1]: 715000 M⁻¹ s⁻¹
Kd [2]: 0.112 nM
T½ [2]: 129 min
koff [2]: 8.94e-05 s⁻¹
kon [2]: 798000 M⁻¹ s⁻¹
Kd [3]: 1.77 nM
T½ [3]: 13 min
koff [3]: 0.000875 s⁻¹
kon [3]: 495000 M⁻¹ s⁻¹

B4: H1H6765P (antibody, human IgG1, V domains shown)
VH: EVQLVESGGGVVRPGGSLRLSCVGSGFSFDDHGMNWVRQGPGKGLEWVSGFNWNGGSTNYAESVKGRFTISRDNARNSLFLQMNSLRAEDTALYYCVRGRSGWFNDAFDVWGPGTMVTVSS
VL: EIVLTQSPGTLSLSPGERATLSCRASQTINSNYLAWYRQKPGQTPRLLIYGTSSRATGIPDRFSGSGSGTDFSLTISRLEPEDFAVFYCQQYAGLPTFGPGTKVDIK
notes: Human IgG1 Fc (H1H)
Kd [1]: 0.124 nM
T½ [1]: 102 min
koff [1]: 0.000113 s⁻¹
kon [1]: 907000 M⁻¹ s⁻¹
Kd [2]: 0.0392 nM
T½ [2]: 339 min
koff [2]: 3.41e-05 s⁻¹
kon [2]: 869000 M⁻¹ s⁻¹
Kd [3]: 0.254 nM
T½ [3]: 86 min
koff [3]: 0.000134 s⁻¹
kon [3]: 527000 M⁻¹ s⁻¹

B5: H1H6797P (antibody, human IgG1, V domains shown)
VH: EVQLVESGGGLVQPGGSLRLSCIVSGFTFSGSWMSWVRQLPGKGLEWVANIKEDGSDSYYVDSVEGRFTISRDNAKSSLYLQMNSLRVDDTAVYFCARARTVPLHYWGQGTLVTVSS
VL: DIQMTQSPSTLSASVGDRVTITCRASQSINIWLAWYQQKPGKAPKLLIYRASYLESGVPSSFAGGGSGTEFTLTISSLQPDDFGTYYCQHYNSYPFTFGQGTKLEIK
notes: Human IgG1 Fc (H1H)
Kd [1]: 1.73 nM
T½ [1]: 6 min
koff [1]: 0.00196 s⁻¹
kon [1]: 1.13e+06 M⁻¹ s⁻¹
Kd [2]: 0.122 nM
T½ [2]: 97 min
koff [2]: 0.000119 s⁻¹
kon [2]: 982000 M⁻¹ s⁻¹
Kd [3]: 3.12 nM
T½ [3]: 6 min
koff [3]: 0.00209 s⁻¹
kon [3]: 670000 M⁻¹ s⁻¹

B6: H1H6790P (antibody, human IgG1, V domains shown)
VH: EVQLVESGGGLVQPGGSLRLSCAASGFTFSSYAMTWVRQAPGKGLEWVSAITGSVGNTYYADSVKGRFTISRDNSKNTLYLQMNSLGAEDTAEYYCAKGAGMTTNWYLDLWGRGTLVTVSS
VL: DIVMTQSPDSLAVSLGARATINCKSSQSVLYSSNNQNYLTWYQQKPGQPPKLLIKWASTRESGVPDRFSGSGSGTDFTLTISSLQAEDVAVYYCQQYASSPYTFGQGTKLEIK
notes: Human IgG1 Fc (H1H)
Kd [1]: 1.41 nM
T½ [1]: 14 min
koff [1]: 0.000799 s⁻¹
kon [1]: 565000 M⁻¹ s⁻¹
Kd [2]: 0.192 nM
T½ [2]: 111 min
koff [2]: 0.000104 s⁻¹
kon [2]: 542000 M⁻¹ s⁻¹
Kd [3]: 2.04 nM
T½ [3]: 15 min
koff [3]: 0.000793 s⁻¹
kon [3]: 389000 M⁻¹ s⁻¹

B7: H1H6783P (antibody, human IgG1, V domains shown)
VH: QVQLQQSGPGLVKPSQTLSLTCAISGDSVSSNTFAWNWIRQSPSRGLEWLGRTYYRSKWYIDYAESVKSRITITPDTSKNQFSLQLNSVTPEDTALYYCAGGYTYAPRGAFDIWGQGTMVTVSS
VL: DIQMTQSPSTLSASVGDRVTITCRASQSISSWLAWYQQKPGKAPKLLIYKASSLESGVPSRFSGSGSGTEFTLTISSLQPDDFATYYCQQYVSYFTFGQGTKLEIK
notes: Human IgG1 Fc (H1H)
Kd [1]: 1.43 nM
T½ [1]: 28 min
koff [1]: 0.000413 s⁻¹
kon [1]: 288000 M⁻¹ s⁻¹
Kd [2]: 0.332 nM
T½ [2]: 132 min
koff [2]: 8.77e-05 s⁻¹
kon [2]: 264000 M⁻¹ s⁻¹
Kd [3]: 1.81 nM
T½ [3]: 34 min
koff [3]: 0.000341 s⁻¹
kon [3]: 189000 M⁻¹ s⁻¹

B8: H1H6793P (antibody, human IgG1, V domains shown)
VH: EVQLVESGGGLVQPGGSLRLSCAASGFSFSIYAMSWFRQAPGKGLEWVSAINGRGDGTHYADSVKGRFTISRDNSKTTLYLQMSSLRAEDTAVYYCAKPVMSTNGFDIWGQGTMVTVSS
VL: DIQMTQSPSTLSASVGDRVTITCRASQSISSWLAWYQLKPGKAPKLLIYKASNLESGVPSRFSGSGSGTEFTLTISSLQPDDFATYYCQQYNIYWTFGQGTKVEIK
notes: Human IgG1 Fc (H1H)
Kd [1]: 1.41 nM
T½ [1]: 35 min
koff [1]: 0.000332 s⁻¹
kon [1]: 235000 M⁻¹ s⁻¹
Kd [2]: 0.331 nM
T½ [2]: 153 min
koff [2]: 7.57e-05 s⁻¹
kon [2]: 229000 M⁻¹ s⁻¹
Kd [3]: 2.22 nM
T½ [3]: 29 min
koff [3]: 0.000393 s⁻¹
kon [3]: 177000 M⁻¹ s⁻¹

B10: H1H6782P (antibody, human IgG1, V domains shown)
VH: EVQLVESGGGLVQPGRSLRLSCAASGFTFDDYAMHWVRQAPGKGLEWVSGIIWNSGHIGYGDSVKGRFTISRDNAKKSLYLQMNSLRAEDTALYYCARDSGRYQSYFDYWGQGTLVTVSS
VL: DIQMTQSPSTLSASVGDRVTITCRASHIISSWLAWYQQKPGKAPKVLIFKASSLESGVPSRFSGSGSGTEFTLTISSLQPDDFATYYCQQYNTYSRTFGQGTKVEIK
notes: Human IgG1 Fc (H1H)
Kd [1]: 0.685 nM
T½ [1]: 47 min
koff [1]: 0.000247 s⁻¹
kon [1]: 360000 M⁻¹ s⁻¹
Kd [2]: 0.225 nM
T½ [2]: 162 min
koff [2]: 7.13e-05 s⁻¹
kon [2]: 317000 M⁻¹ s⁻¹
Kd [3]: 1.05 nM
T½ [3]: 41 min
koff [3]: 0.000279 s⁻¹
kon [3]: 266000 M⁻¹ s⁻¹

B11: H1H6781P (antibody, human IgG1, V domains shown)
VH: EVQLVESGGDLVQPGESLRLSCTASGFTFNSYEMNWVRQAPGKGLEWVSYISSSGGTKYYVDSVKGRFTISRDNAKKSLYLQMNSLRADDTALYYCARLNGVDVFDIWGQGTMVTVSS
VL: DIQMTQSPSSLSASVGDRVTITCRASQDIFNYLAWFQQKPGKVPELLISAASTLQSGVPSRFSGSGSGTYFTLTISSLQPEDIATYYCQRYNSAPLTFGGGTKVEIK
notes: Human IgG1 Fc (H1H)
Kd [1]: 0.61 nM
T½ [1]: 91 min
koff [1]: 0.000127 s⁻¹
kon [1]: 208000 M⁻¹ s⁻¹
Kd [2]: 0.236 nM
T½ [2]: 191 min
koff [2]: 6.05e-05 s⁻¹
kon [2]: 257000 M⁻¹ s⁻¹
Kd [3]: 0.986 nM
T½ [3]: 82 min
koff [3]: 0.000141 s⁻¹
kon [3]: 143000 M⁻¹ s⁻¹

The remaining binders from weak to strong by Kd [1], led by results:

Kd [1]: 2.45 nM
T½ [1]: 15 min
koff [1]: 0.000794 s⁻¹
kon [1]: 324000 M⁻¹ s⁻¹
Kd [2]: 0.313 nM
T½ [2]: 122 min
koff [2]: 9.48e-05 s⁻¹
kon [2]: 303000 M⁻¹ s⁻¹
Kd [3]: 4.17 nM
T½ [3]: 12 min
koff [3]: 0.000983 s⁻¹
kon [3]: 236000 M⁻¹ s⁻¹
B3: H1H6792P (antibody, human IgG1, V domains shown)
VH: EVQLVESGGGLVQPGRSLRLSCAASGFTLDDHAVHWVRQAPGKGLEWVSGISWNSVYIDYADSVKGRFTIFRDNAKNSLYLQMNSLRAEDTAFYYCARDIEGARDYWGQGTLVTVSS
VL: DIQMTQSPSSLSASVGDRVTITCRASQGIRNDLGWYQQKPGKAPKRLIYAASSLQSGVPSRFSGSGYGTEFTLTISSLQPEDFAPYYCLQHNSYPLTFGGGTKVEIK
notes: Human IgG1 Fc (H1H)

Kd [1]: 1.52 nM
T½ [1]: 7 min
koff [1]: 0.00177 s⁻¹
kon [1]: 1.17e+06 M⁻¹ s⁻¹
Kd [2]: 0.0545 nM
T½ [2]: 137 min
koff [2]: 8.41e-05 s⁻¹
kon [2]: 1.54e+06 M⁻¹ s⁻¹
Kd [3]: 2.33 nM
T½ [3]: 6 min
koff [3]: 0.00197 s⁻¹
kon [3]: 844000 M⁻¹ s⁻¹
B9: H1H6795P (antibody, human IgG1, V domains shown)
VH: QVQLVQSGAEVKKPGASVKVSCKASGYTFGTSGITWVRQAPGQGLEWMGWSSAYNGKTDYAQKFQDRVTMTTDTSTTTGYMEMRSLTSDDTAVYYCTTVVRRPFDFWGQGTLVTVSS
VL: DIQMTQSPSSLSASVGDRVTITCRASQDINNFLAWFQQKPGKAPKSLIYAASSLQSGVPSKFSGGGSGTDFALTISSLQPEDFATYYCQQYSSYPITFGQGTRLEIK
notes: Human IgG1 Fc (H1H)

Kd [1]: 0.972 nM
T½ [1]: 28 min
koff [1]: 0.000409 s⁻¹
kon [1]: 421000 M⁻¹ s⁻¹
Kd [2]: 0.184 nM
T½ [2]: 133 min
koff [2]: 8.69e-05 s⁻¹
kon [2]: 473000 M⁻¹ s⁻¹
Kd [3]: 1.25 nM
T½ [3]: 30 min
koff [3]: 0.00038 s⁻¹
kon [3]: 303000 M⁻¹ s⁻¹
B1: H1H6800P (antibody, human IgG1, V domains shown)
VH: EVQLVESGGGLVQPGRSLRLSCAASGFTFDGYAMHWVRQGPGKGLEWVSGISWYSDTLGYADSVKGRFTISRDNAKNSLYLQMNSLRTEDTAFYYCAKISSSGWAFDYWGQGTLVTVSS
VL: EIVLTQSPGTLSLSPGERATLSCRASHSVSSAYLAWYQQKPGQTPRLLIYGTSSRATGIPDRFSGSGSGTDFTLTISRLEPEDFAVYYCQQYGSSPLFTFGPGTKVDIK
notes: Human IgG1 Fc (H1H)

Kd [1]: 0.567 nM
T½ [1]: 68 min
koff [1]: 0.000171 s⁻¹
kon [1]: 301000 M⁻¹ s⁻¹
Kd [2]: 0.231 nM
T½ [2]: 190 min
koff [2]: 6.07e-05 s⁻¹
kon [2]: 263000 M⁻¹ s⁻¹
Kd [3]: 0.738 nM
T½ [3]: 69 min
koff [3]: 0.000167 s⁻¹
kon [3]: 227000 M⁻¹ s⁻¹
B12: H1H6785P (antibody, human IgG1, V domains shown)
VH: EVQLVESGGGLVQPGGSLRLSCAASGFTFSSYEMNWVRQAPGKGLEWISYISSRGGTIYYADSIKGRFTIYRDNARNSLYLQMNSLRAEDTAIYYCARLSGVDIFDIWGQGTMVTVSS
VL: B11 VL with D28G, F30S, F36Y, E45K, S49Y, A50F, S65G, Y70D, I83V
notes: Human IgG1 Fc (H1H)
